Measurements taken from US20240352105A1, “COMPOSITIONS AND METHODS FOR NEUTRALIZING ANTIGENS” (PACAGEN, INC, priority 2023, published 2024).

T1: recombinant His-tagged Der p2 (dust mite, UniProt P49278 18-146)
T1 construct: also called Der p2-His; Der p2-HIS; not shown: His tag
T1 sequence (looked up): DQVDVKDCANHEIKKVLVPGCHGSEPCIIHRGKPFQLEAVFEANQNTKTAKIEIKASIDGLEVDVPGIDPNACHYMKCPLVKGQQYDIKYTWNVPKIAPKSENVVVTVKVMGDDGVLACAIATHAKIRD

T2: recombinant His-tagged Der p1 (dust mite, UniProt P08176 99-320, limits assumed)
T2 sequence (looked up): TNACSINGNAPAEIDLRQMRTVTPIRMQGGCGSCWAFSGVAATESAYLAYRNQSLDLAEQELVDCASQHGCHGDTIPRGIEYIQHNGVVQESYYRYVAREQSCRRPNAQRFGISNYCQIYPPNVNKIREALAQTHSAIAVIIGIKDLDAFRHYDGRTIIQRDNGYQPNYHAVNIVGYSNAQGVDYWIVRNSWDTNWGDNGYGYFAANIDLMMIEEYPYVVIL

B1: SDAB22111-1-H12 (VHH)
VHH: QVQLVESGGGLVQPGGSLRLSCAASRSIDRFPAMGWYRQAPGKKRELVAAISSANTRTKYADSVKGRFTISRDNAENTMYLQMNSLKPEDTAVYYCNVFPRPVQGYWGQGTQVTVSS
notes: anti-Der p2 alpaca VHH; prokaryotic expression
B2: SDAB22111-1-E10 (VHH)
VHH: QLQLVESGGGMVQPGGSLRLSCAASGTLFSTALMGWYRQAPGKQRTLVASITDGGSTNYVDSVKGRFTISRDNEKNTVYLQMNSLKFEDTAVYYCNAHWGSYDYWGQGTQVVVSS
notes: as for B1
B3: SDAB22111-1-F9-B03 (VHH)
VHH: EVQLVESGGGLVQPGGSLRLSCAASGRTFSSYAMGWFRQAPGKEREFVAGISRRGSNIYYADSVKGRFTISRDNAKNTVYLQMNSLKPEDTAVYYCNARHPRISTRLYWGQGTQVTVSS
notes: as for B1
B4: SDAB22111-1-B1 (VHH)
VHH: DVQLVESGGGLVQPGGSLRLSCAASGFTFALYSMRWYRQAPGKERELVAAITSGRSTNYADSVKGRFTISRDNAKNTVYLQMNSLKPEDTAVYHCNARHPIATLGNYWGQGTPVTVSS
notes: as for B1
B5: SDAB22111-1-F9 (VHH)
VHH: QVQLVESGGGLVQPGGSLRLSCAASGRIFRPDGMAWYRQAPGKQREFVAGITRGGRTTYADSVKGRFTISRDNAENTVYLQMNSLKPEDTAVYYCNAKPSAWTLPRYRYDYWGQGTQVTVSS
notes: as for B1
B6: SDAB22111-1-D3 (VHH)
VHH: QLQLVESGGGLVQPGGSLRLSCVVSGRTLSGHNMGWFRQAPGKEREFVARINSNGGTTRYADAVKGRFTISRDNAKNTAYLQMNSLKSEDTAVYYCRLVGPAGYWGQGTQVTVSS
notes: as for B1
B7: SDAB22111-1-D6 (VHH)
VHH: DVQLVESGGGLVQPGGSLRLSCVASGLTFSYYDMKWHRQAPGKERELVAAIIEGGRTMYADSVKGRFTISRDSPKKSVYLQMNNLKSEDTAVYYCNAVRARFRGLGNDDAWGQGTQVTVSS
notes: as for B1
B8: SDAB22111-1-C1 (VHH)
VHH: QVQLVESGGGLVQPGGSLRLSCAASASFVGAYAMYWFRQATGKQRELVAFITSGNSTNYADSVKGRFTISRDYTKNTVYLQMNKLKPEDTAVYSCNLVTSRGDYWGQGTQVTVSS
notes: as for B1
B9: SDAB22129-55-35-46-49-1-C12 (VHH)
VHH: QVQLVESGGGLVQAGGSLRLSCAASGRTFSSYAMGWFRQAPGKEREFVAIISNTGGLTDYAHSVKGRFTISRDNAKNTGYLQMNSLKPEDTALYYCAADFLGPKSWPSYWGQGTQVTVSS
notes: Expressed from a prokaryotic vector
B10: SDAB22129-55-35-46-49-1-G07 (VHH)
VHH: QVQLVESGGGLVQAGGSLRLSCAASGRTFSSYAMGWFRQAPGKERELVATISWSGGSTYYADSVKGRFTISRDNAKNTGFLQMNSLKPEDTAVYYCAADFASTVGTPLTRPAYWGQGTQVTVSS
notes: as for B9
B11: SDAB22129-55-35-46-49-1-G02 (VHH)
VHH: QLQLVESGGGLVQAGGSLRLSCTASGRTFRNFGMGWFRQAPGKERKLVASISYVGGNTDYADSVKGRFTISMDNAKNTVVLQMNSLKPEDTAMYYCAARNPNRNEYPWWGQGTQVTVSS
notes: as for B9
B12: SDAB22129-55-35-46-49-1-H08 (VHH)
VHH: EVQLVESGGGLVQAGGSLTLSCGRTTSIWGMGWFRQGRGKEREFVAAITPSGSITFYSDHVKGRFTVSRDNALNTVYLQMNSLKPEDTAVYYCARRGSSGSYYWAGSYEAWGQGTQVTVSS
notes: as for B9

Target: T1, recombinant His-tagged Der p2
Assay: ELISA, antigen coated
Conditions: not given
Description: (§1) 2 microgram per milliliter (μg/mL) target antigen is coated in a 96-well plate and ELISA assay is performed after incubation with candidate VHHs. The binding EC50 of each clone is calculated using Prism GraphPad. The positive control antibody is involved as an internal control.
(§2) Isolated VHH clones were further validated by performing an ELISA assay as described in Example 1. Metrics of thermostability including melting temperature (Tₘ), onset temperature (Tₒₙₛₑₜ), and temperature of aggregation (Tagg), were also tested with increasing temperature in the range of 20° C.-95° C. at the speed of 1° C./min. These measurements were performed using a Nanotemper DSF. When applicable, Tₘ1 refers to the first melting point observed, Tₘ2 refers to the second melting point observed, etc., Sequence information for the VHH clones and the binding assay results are summarized in Table 3. The individual binding curves are shown for each candidate in FIGS. 3B-3I.

Molecule | EC50 [µg/mL]
B1 | 2.67
B2 | 6.57
B3 | 15.9
B4 | 8.23
B5 | 4.95
B6 | 8.41
B7 | 9.66
B8 | 1.11

Target: T2, recombinant His-tagged Der p1
Assay: cell-based or functional assay
Conditions: not given

Molecule | Maximum Rate of Blocking
B9 | 91.6
B10 | 93.3
B11 | 85.2
B12 | 92.8

Test system: not listed separately
Assay: Thermostability (Tm, Tonset, Tagg) by Nanotemper DSF
Type: physicochemical
Set-up: key to Tm2 / Tagg / Tm1 / Tm / Tm3 / Tonset / Tonset ø (mean) / Tagg ø (mean): temperatures in °C
Conditions: anti-Der p2 VHH; 20° C.-95° C. at 1° C./min
Description: as §2, with “(Tm),” for “(Tₘ),”, “(Tonset),” for “(Tₒₙₛₑₜ),”, “Tm1” for “Tₘ1”, “Tm2” for “Tₘ2”
(§3) Isolated VHH clones were further validated by performing an ELISA assay as described in Example 1. Metrics of thermostability including melting temperature (Tm), onset temperature (Tonset), and temperature of aggregation (Tagg), were also tested with increasing temperature in the range of 20° C.-95° C. at the speed of 1° C./min. The individual binding curves are shown for each candidate in FIGS. 5B-5H.
as §3, with “7B-7P.” for “5B-5H.”
The detailed thermostability graphs used to determine the Tm, Tonset, and Tagg are illustrated in FIGS. 19A-19I and raw data is summarized in Table 23. Any subsequent melting points observed (Tm1, Tm2, Tm3, etc.) are separated by commas.

Molecule | Tagg
B1 | 43.37
B3 | 40.04
B6 | 42.45
B7 | 41.57
B8 | 43.53

Same assay, conditions: anti-Der p2 VHH; first melting point observed; in °C (unit assumed)

Molecule | Tm1
B1 | 51.93
B6 | 53.78
B7 | 49.02
B8 | 54.52

Same assay, conditions: anti-Der p2 VHH; second melting point observed; in °C (unit assumed)

Molecule | Tm2
B1 | 59.13
B6 | 69.76
B7 | 62.55
B8 | 66.51

Same assay, conditions: anti-Der p2 VHH; single melting point; in °C (unit assumed)

Molecule | Tm
B3 | 71.38

Same assay, conditions: anti-Der p2 VHH; third melting point; in °C (unit assumed)

Molecule | Tm3
B1 | 68.62

Target: T2, recombinant His-tagged Der p1
Assay: ELISA, antigen coated on plate
Conditions: not given
Description: as §1
Isolated VHH clones were further validated by performing an ELISA assay as described in Example 1. The individual binding curves are shown for each candidate in FIGS. 9A-9K.

Molecule | EC50 [µg/mL]
B9 | 4.95
B10 | 0.485
B11 | 4.21
B12 | 16.5
